According to patent US20060257938A1, “Method of screening for drugs that block ligand binding to a lipid binding protein” (priority 2005, published 2006):

Legend:
Assay type in all cases: binding
[1] = Probe fluorescence ratio response to linoleic acid relative to ADIFAB2; conditions: response relative to ADIFAB2
Method in brief: (§1)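 Fluorescently labeled rat intestinal FABP variants were read at two emission wavelengths, near the unbound maximum (about 420 to 480 nm) and the FFA-bound maximum (about 495 to 580 nm). R = Fλ1/Fλ2 after subtracting probe-free intensity; ΔR = R+agent − R0, normalized to ADIFAB2 (rI-FABP-L72A).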

[2] = Probe fluorescence ratio response to palmitic acid relative to ADIFAB2; conditions: response relative to ADIFAB2
Method in brief: as §1

[3] = Probe fluorescence ratio response to linolenic acid relative to ADIFAB2; conditions: response relative to ADIFAB2
Method in brief: as §1

[4] = Probe fluorescence ratio response to oleic acid relative to ADIFAB2; conditions: response relative to ADIFAB2
Method in brief: as §1

[5] = Probe fluorescence ratio response to palmitoleic acid relative to ADIFAB2; conditions: response relative to ADIFAB2
Method in brief: as §1

[6] = Probe fluorescence ratio response to stearic acid relative to ADIFAB2; conditions: response relative to ADIFAB2
Method in brief: as §1

[7] = Probe fluorescence ratio response to arachidonic acid relative to ADIFAB2; conditions: arachidonic acid; response relative to ADIFAB2
Method in brief: as §1

Molecule | DR/DR LA [1] | DR/DR PA [2] | DR/DR LNA [3] | DR/DR OA [4] | DR/DR POA [5] | DR/DR SA [6] | DR/DR AA [7]
18L 73F 117G 72A (protein, listed as Rattus norvegicus, PEPTIDE (1)...(131) wild-type rat intestinal fatty acid binding protein) AFDGTWKVDRNENYEKFLEKMGINVVKRKLGAHDNLKLTITQEGNKFTVKESSNFRNIDVVFELGVDFAYSAFDGTELTGTWTMEGNKLVGKFKRVDNGKELIAVREISGNELIQTGTYEGVEAKRIFKKE | 2.283 | 1.039 | 1.913 | 1.908 | 1.731 | 0.663 | 2.445
14L 18L 31W 73W 117L 72A (protein, listed as Rattus norvegicus, PEPTIDE (1)...(131) wild-type rat intestinal fatty acid binding protein) AFDGTWKVDRNENLEKFLEKMGINVVKRKLWAHDNLKLTITQEGNKFTVKESSNFRNIDVVFELGVDFAYSAWDGTELTGTWTMEGNKLVGKFKRVDNGKELIAVREISGNELIQTLTYEGVEAKRIFKKE | 1.782 | 0.970 | 1.640 | 1.085 | 2.059 | 0.294 | 1.772
18V 31I 55L 73V 72A (protein, listed as Rattus norvegicus, PEPTIDE (1)...(131) wild-type rat intestinal fatty acid binding protein) AFDGTWKVDRNENYEKFVEKMGINVVKRKLIAHDNLKLTITQEGNKFTVKESSNLRNIDVVFELGVDFAYSAVDGTELTGTWTMEGNKLVGKFKRVDNGKELIAVREISGNELIQTYTYEGVEAKRIFKKE | 2.680 | 1.253 | 2.433 | 2.254 | 2.285 | 1.233 | 2.273
14L 18L 31L 73G 117V 72A (protein, listed as Rattus norvegicus, PEPTIDE (1)...(131) wild-type rat intestinal fatty acid binding protein) AFDGTWKVDRNENLEKFLEKMGINVVKRKLLAHDNLKLTITQEGNKFTVKESSNFRNIDVVFELGVDFAYSAGDGTELTGTWTMEGNKLVGKFKRVDNGKELIAVREISGNELIQTVTYEGVEAKRIFKKE | 1.170 | 0.377 | 1.139 | 0.031 | 0.180 | 0.170 | 1.180
14I 18L 31W 73V 117G 72A (protein, listed as Rattus norvegicus, PEPTIDE (1)...(131) wild-type rat intestinal fatty acid binding protein) AFDGTWKVDRNENIEKFLEKMGINVVKRKLWAHDNLKLTITQEGNKFTVKESSNFRNIDVVFELGVDFAYSAVDGTELTGTWTMEGNKLVGKFKRVDNGKELIAVREISGNELIQTGTYEGVEAKRIFKKE | 2.047 | 1.236 | 1.960 | 1.756 | 1.770 | 0.606 | 2.037
14W 18L 117S 72A (protein, listed as Rattus norvegicus, PEPTIDE (1)...(131) wild-type rat intestinal fatty acid binding protein) AFDGTWKVDRNENWEKFLEKMGINVVKRKLGAHDNLKLTITQEGNKFTVKESSNFRNIDVVFELGVDFAYSAADGTELTGTWTMEGNKLVGKFKRVDNGKELIAVREISGNELIQTSTYEGVEAKRIFKKE | 1.063 | 0.377 | 0.835 | 0.904 | 0.811 | 0.297 | 0.976
14A 18Y 31W 73G 117V 72A (protein, listed as Rattus norvegicus, PEPTIDE (1)...(131) wild-type rat intestinal fatty acid binding protein) AFDGTWKVDRNENAEKFYEKMGINVVKRKLWAHDNLKLTITQEGNKFTVKESSNFRNIDVVFELGVDFAYSAGDGTELTGTWTMEGNKLVGKFKRVDNGKELIAVREISGNELIQTVTYEGVEAKRIFKKE | 1.018 | 0.421 | 0.940 | 0.518 | 0.883 | 0.158 | 0.365
38Q 62I 106I 117A 72A (protein, listed as Rattus norvegicus, PEPTIDE (1)...(131) wild-type rat intestinal fatty acid binding protein) AFDGTWKVDRNENYEKFMEKMGINVVKRKLGAHDNLKQTITQEGNKFTVKESSNFRNIDVVIELGVDFAYSAADGTELTGTWTMEGNKLVGKFKRVDNGKELIAVIEISGNELIQTATYEGVEAKRIFKKE | 1.288 | 0.550 | 0.930 | 1.167 | 0.473 | 0.663 | 1.656
18V 31Y 73V 72A (protein, listed as Rattus norvegicus, PEPTIDE (1)...(131) wild-type rat intestinal fatty acid binding protein) AFDGTWKVDRNENYEKFVEKMGINVVKRKLYAHDNLKLTITQEGNKFTVKESSNFRNIDVVFELGVDFAYSAVDGTELTGTWTMEGNKLVGKFKRVDNGKELIAVREISGNELIQTYTYEGVEAKRIFKKE | 2.780 | 1.534 | 2.605 | 2.349 | 2.376 | 1.330 | 2.400
78F 102I 72A (protein, listed as Rattus norvegicus, PEPTIDE (1)...(131) wild-type rat intestinal fatty acid binding protein) AFDGTWKVDRNENYEKFMEKMGINVVKRKLGAHDNLKLTITQEGNKFTVKESSNFRNIDVVFELGVDFAYSAADGTEFTGTWTMEGNKLVGKFKRVDNGKEIIAVREISGNELIQTYTYEGVEAKRIFKKE | 2.493 | 1.434 | 2.322 | 2.506 | 2.022 | 1.877 | 2.093
38V 62V 117A 72A (protein, listed as Rattus norvegicus, PEPTIDE (1)...(131) wild-type rat intestinal fatty acid binding protein) AFDGTWKVDRNENYEKFMEKMGINVVKRKLGAHDNLKVTITQEGNKFTVKESSNFRNIDVVVELGVDFAYSAADGTELTGTWTMEGNKLVGKFKRVDNGKELIAVREISGNELIQTATYEGVEAKRIFKKE | 1.002 | 0.478 | 1.153 | 1.668 | 0.668 | 0.495 | 0.984
38A 106V 117A 72A (protein, listed as Rattus norvegicus, PEPTIDE (1)...(131) wild-type rat intestinal fatty acid binding protein) AFDGTWKVDRNENYEKFMEKMGINVVKRKLGAHDNLKATITQEGNKFTVKESSNFRNIDVVFELGVDFAYSAADGTELTGTWTMEGNKLVGKFKRVDNGKELIAVVEISGNELIQTATYEGVEAKRIFKKE | 0.229 | 0.033 | 0.541 | 0.368 | 0.121 | 0.065 | 1.492
18V 31Y 73I 72A (protein, listed as Rattus norvegicus, PEPTIDE (1)...(131) wild-type rat intestinal fatty acid binding protein) AFDGTWKVDRNENYEKFVEKMGINVVKRKLYAHDNLKLTITQEGNKFTVKESSNFRNIDVVFELGVDFAYSAIDGTELTGTWTMEGNKLVGKFKRVDNGKELIAVREISGNELIQTYTYEGVEAKRIFKKE | 2.619 | 1.784 | 2.537 | 2.007 | 2.528 | 1.139 | 1.946
38M 104S 115A 74F 72A (protein, listed as Rattus norvegicus, PEPTIDE (1)...(131) wild-type rat intestinal fatty acid binding protein) AFDGTWKVDRNENYEKFMEKMGINVVKRKLGAHDNLKMTITQEGNKFTVKESSNFRNIDVVFELGVDFAYSAAFGTELTGTWTMEGNKLVGKFKRVDNGKELISVREISGNELIATYTYEGVEAKRIFKKE | 1.778 | 0.498 | 1.615 | 1.155 | 1.172 | 0.356 | 1.690
14I 18V 31W 73I 117V 72A (protein, listed as Rattus norvegicus, PEPTIDE (1)...(131) wild-type rat intestinal fatty acid binding protein) AFDGTWKVDRNENIEKFVEKMGINVVKRKLWAHDNLKLTITQEGNKFTVKESSNFRNIDVVFELGVDFAYSAIDGTELTGTWTMEGNKLVGKFKRVDNGKELIAVREISGNELIQTVTYEGVEAKRIFKKE | 1.668 | 0.652 | 1.495 | 0.887 | 1.411 | 0.283 | 1.553
